Test results from publication PMC8784147.

Biological target: HBV core protein dimer (Cp149 dimer, 34 kDa) (hepatitis B virus)
Test: multi-cycle resistive-pulse sensing

HBV core protein dimer (Cp149 dimer, 34 kDa) (domain or fragment)
stoichiometry N: 120 dimers
